Experimental data as given in patent US20170058319A1, “NANOSENSOR FOR ASSESSING THROMBIN INHIBITORS” (VIRGINIA COMMONWEALTH UNIVERSITY, priority 2014, published 2017).

Experiments:
[1] = target: Au-TH nanoprobe (gold nanoparticles covalently linked to bovine α-thrombin) (bovine) (UniProt P00735); assay: displacement of HirP from the Au-TH nanoprobe by AT at 10 µM, 1 h incubation
[2] = target: Au-TH nanoprobe (gold nanoparticles covalently linked to bovine α-thrombin) (bovine) (UniProt P00735); assay: displacement of HirP from the Au-TH nanoprobe by AT at 100 µM, 1 h incubation
[3] = target: Au-TH nanoprobe (gold nanoparticles covalently linked to bovine α-thrombin) (bovine) (UniProt P00735); assay: cell-based or functional assay
[4] = target: Au-TH nanoprobe (gold nanoparticles covalently linked to bovine α-thrombin) (bovine) (UniProt P00735); assay: displacement of HirP from the Au-TH nanoprobe by AT at 1 µM, 1 h incubation

Chain of Antithrombin (AT) (P01008 33-464): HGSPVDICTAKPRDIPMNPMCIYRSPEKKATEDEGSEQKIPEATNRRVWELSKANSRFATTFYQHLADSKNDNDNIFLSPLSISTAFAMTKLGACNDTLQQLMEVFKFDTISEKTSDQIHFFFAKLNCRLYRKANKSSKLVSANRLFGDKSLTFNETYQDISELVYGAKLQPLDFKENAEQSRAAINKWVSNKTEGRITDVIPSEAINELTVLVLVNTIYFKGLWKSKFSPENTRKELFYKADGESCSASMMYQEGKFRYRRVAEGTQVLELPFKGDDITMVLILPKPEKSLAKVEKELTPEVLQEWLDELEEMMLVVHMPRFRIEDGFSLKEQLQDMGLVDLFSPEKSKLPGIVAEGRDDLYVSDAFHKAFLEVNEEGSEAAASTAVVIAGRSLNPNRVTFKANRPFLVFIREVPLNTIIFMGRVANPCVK

increase in fluorescence at 525 nm [1]: 25%
increase in fluorescence at 525 nm [2]: 20%
neutralization of surface bound thrombin (chromogenic substrate hydrolysis) [3]: < 60%
increase in fluorescence at 525 nm [4]: 40%
Substance: Antithrombin (AT)
